The test system of series [1] is chromatin reporter array in U2OS cells. Put plainly: Chromatin reporter array (LacO) unfolding. It counts as cell-based. The note with it: doxycycline 1 μg ml^−1 24 h, LacI-tethered, n>300. The source says:
Figure 7 hHP1β dimerization is required for maintaining condensed cellular chromatin states. (a) Schematic diagram of the transgene system used to test chromatin compaction effects of hHP1β. A tandem array of the construct has been integrated into the genome of U2OS mammalian cells. Dox, doxycycline; rtTA, reverse tetracycline-controlled TET-VP16 transactivator, whose binding to tetracycline responsive elements (RE) is activated by doxycycline. (b) Together with mCherry-LacI, the indicated fusion proteins were transiently expressed in U2OS cells containing the chromatin reporter array as described in a. Representative confocal images in the absence or after induction of transcription from the array with doxycycline (Dox) are shown. DNA was stained with DAPI. Inlets show enlarged chromatin reporter array; scale bar, 10 μm. (c) Quantification of the results shown in b together with results of similar experiments using additional hHP1β mutant proteins. Averages of three independent experiments are plotted; error bars represent s.d.; n>300 for each condition; asterisks represent P<0.05 according to Student's t-test.
U2OS 2-6-3 CLTon cells[38] were kindly provided by Dr Supriya Prasanth (University of Illinois, IL, USA) and maintained in DMEM (high glucose+GlutaMax) (GIBCO/Invitrogen, Darmstadt, Germany) supplemented with 10% (v/v) TET system approved fetal bovine serum (Clontech, Saint-Germain-en-Laye, France), 50 μg ml^−1 hygromycin (Carl Roth, Karlsruhe, Germany) and 200 μg ml^−1 G418 (Clontech, Saint-Germain-en-Laye, France). For fluorescence microscopy, cells were grown on coverslips in a six-well plate without antibiotics. 500 ng plasmid DNA was transfected using Lipofectamine LTX and Plus reagent (Invitrogen, Darmstadt, Germany). 20 h post transfection, cells were treated with 1 μg ml^−1 doxycycline for 24 h for induction of rtTA expression. Cells were washed twice with PBS and fixed with 3.7% (v/v) formaldehyde/PBS for 10 min at RT. […] P values (according to Student's t-test) were calculated using GraphPad QuickCals (GraphPad, CA, USA).

The subject of another series is H3K9me3 oligonucleosomes. The series is described as follows: Fluorescence correlation spectroscopy (FCS), H3K9me3 oligonucleosomes. It counts as biochemical, Xenopus laevis. The note with it: 150 mM NaCl. The protocol:
All fluorescence measurements were performed with a pulsed custom-built mode-locked Ti:Sa-Laser and a confocal two-photon fluorescence microscope setup. Detailed description of the experimental setup and the measurement procedure are available on request. In all cases 10 nM of the acceptor labelled species, ATTO 610-labelled nucleosomal array, was incubated with 20–200 μM of recombinant hHP1β in 10 μl of 10 mM triethanolamine HCl (pH 7.5), 0.1 mM EDTA, 150 mM NaCl at 4°C. For each sample the fluorescence correlation curve, fluorescence intensity and anisotropy values were determined at 22°C. Every data point was averaged over a minimum of 15 single measurements of 10 s each. Excitation was by two-photon mode.
The fluorescence data were analysed using the correlation function [drawing 1] , and the equation for free diffusion of particles [drawing 2] , where I(t) is the fluorescence intensity measured at time t, N the particle number, τD the diffusion time, and r0=0.25 the axis ratio of the focal region, considering the dimensions of a Gaussian beam waist.
Supplementary Figure 3: Analysis of chromatin clustering m ediated by hHP1β.
(a) Schematic representation of a stepwise precipitation and resolubilization experiment.
(b) Results of stepwise precipitation and resolubilization after clustering H3K9me3-oligonucleosomes by hHP1β at different concentrations. DNA remaining in the supernatant after centrifugation was incubated with EtBr and measured by fluorescence reading. Data were normalized to amounts present in the input.
Results of a representative experiment are shown.
(c) Instrumental setup used for two -photon fluorescence correlation spectroscopy (FCS). The beam of a pulsed Ti:Sa-Laser is reflected into a water immersion objective (O) via a dichroic mirror (M). The fluorescence light transmitted through this dichroic mirror is split up by a second dichroic mirror. Blow- […]
F: filter, L: lens, M: dichroic mirror, O:objective, PD:
(d) Scheme of the strategy used for FCS measurements. DNA of oligonucleosomes was labeled at the 5’- […]

In the case of “hHP1β WT: recombinant human heterochromatin protein 1β (GenBank NM_001127228), 185 aa”, the “unfolding of the array on activation” value in series [1] is “largely reduced”. Besides, the maximum hydrodynamic radius in the series on H3K9me3 oligonucleosomes (10 nM ATTO 610-labelled array, highest protein concentration) is 450 nm. Besides, in the series with H3K9me3 oligonucleosomes (23°C, read-out: half-maximal effect, FCS), the EC50 was 3.5 µM.
In the case of “hHP1β I161A: CSD point mutant of hHP1β incapable of dimerization”, the “unfolding of the array on activation” value in series [1] is “largely reduced by tethering of LacI-YFP-hHP1β WT but not the dimerization deficient I161A mutant”. In the series on H3K9me3 oligonucleosomes, the “complex formation by clustering (FCS)” value is on record as “No such complex formation by clustering”.
